Test results as given in patent publication US20250059285A1.

Target: cynomolgus Gal10-His (WGS isoform) (cynomolgus)
Experiment: SPR Biacore 3000 on cynomolgus Gal10 (WGS isoform)

Kd: 1.5 nM
B1: g7B07-mIgG1 (antibody, V domains shown)
VH: EVQLLESGGGLVQPGGSLRLSCAASGFTFRSYDMSWVRQAPGKGLEWVSAIKNGGGITYYADSVKGRFTISRDNSKNTLYLQMNSLRAEDTAVYYCATTHGIGTLGFGSWGQGTLVTVSS
VL: SYELTQPLSVSVALGQTARITCDGNNIGSKSAQWYQQKPGQAPVLVIYADEYRPEGIPERFSGSNSGNTATLTISRAQAGDEADYYCQVWDGSAAVFGGGTQLTVL
